Measurements taken from article PMC9972897 (Science immunology, 2023).

B1: fp.011 (antibody, V domains shown)
VH: EVQLLESGGGLVQPGGSLRLSCAGSGFTFNNYAMTWVRQAPGRGLEWVSAISGSGGSSHYADSVKGRFTITRDNSKNTLYLQMNSLRAEDTAVYYCAFIDYYSGWSYYYGLDVWGQGTTVTVSS
VL: EIVLTQSPATLSLSPGERATLSCRASQGVRTYVAWYQQKPGQAPRLLIYDASNRATGIPARFSGSGSGTDFTLTISSLEPEDFAVYYCQQRYNWPLCSFGQGTKLEIK
B2: fp.010 (antibody, V domains shown)
VH: EVQLLESGGGLVQPGGSLRLSCAASGFTFSTYAMNWVRQAPGKGLEWVSAISSSGLSTQYADSVRGRFTISRDTSKNTLYLHMNSLRAGDTAVYYCAKVEYSGYDPRGPFDSWGQGTLVTVSS
VL: DIQMTQSPSTLSASVGDRVTITCRASQSISGWLAWYQQKPGRAPKLLIYKASSLERGVPSRFSGSGSGTEFTLTISSLQPDDFATYYCQEYSSYPLCTFGQGTKLEIK
B3: hr2.018 (antibody, V domains shown)
VH: EVQLVESGGGLVKPGGSLRLSCVASGSSVIDAWMNWVRQAPGKGLEWVGRIKSKTNGATTDYAAPVKGRFTISRDDSKNLSYLQMNSLKTEDTGIYYCTTSPLPNFDYWGRGTLVTVSS
VL: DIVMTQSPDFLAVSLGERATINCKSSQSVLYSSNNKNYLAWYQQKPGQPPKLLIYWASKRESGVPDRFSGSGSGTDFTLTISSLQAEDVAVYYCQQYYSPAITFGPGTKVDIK
B4: hr2.019 (antibody, V domains shown)
VH: EVQLVESGGGLVKPGGSLRLSCAASGSSVIDVWMNWVRQAPGKGLEWVGRIKTKASGAATDYGAPVKGRFTISRDDSKNLSYLQMNSLRAEDTGIYYCTTSPLPNFDYWGRGTLVTVSS
VL: DIVMTQSPDFLAVSLGETATINCRSSQSVFYFANNKNYLAWYQQKPGQPPKLLIYWASKRESGVPDRFSGSGSGTDFTLTISSLQAEDVATYYCQQYSSPAITFGPGTKVDIK
B5: hr2.017 (antibody, V domains shown)
VH: EVQLVESGGGLVQPGGSLRLSCAVSGFAFSSSWMHWIRQAPGRGLVWVSRINRDGSTTDYADSVKGRFTISRDNAKATLYLQMNSLRAEDTAVYYCATMGFDYWGQGALVTVSS
VL: DIVMTQSPDSLAVSLGERATINCKSSQNVLYSSNNKNHLSWYQQKPGQPPKLLIYWASTRKSGVPDRFSGSGSGTDFTLTINSLQAEDVAVYYCQQYFSTPNTFGQGTKLEIK
B6: hr2.020 (antibody, V domains shown)
VH: EVQLVQSGAEVKKPGESLKISCKGSGYRFASHWIGWVRQMPGKGLQWMGIIYPGDSDTKYSPSFQGQVTISADKSINTVYLHWTSLKASDTAVYYCARRPPHLDGGDSPIRFDHWGQGTLVTVSS
VL: QSVLTQPPSASGTPGQRVTISCSGSRSNIGSNDVYWYQQFPGTAPKLLIYRNNQRPSGVPDRFSGSKSGTSASLAISGLRSEDEADYYCATWDDRLTGVFGGGTKLTVV
B7: hr2.014 (antibody, V domains shown)
VH: QVQLVQSGAEVKKPGASVKVSCKASGYTFTTYAVHWLRQVPGQRPEWIGWINAANGNTKYSEKFQGRVTITRDTSASTAYMDLRSLRSEDTAVYYCARLLVVRDDPYYYGMDVWGQGTTVTVSS
VL: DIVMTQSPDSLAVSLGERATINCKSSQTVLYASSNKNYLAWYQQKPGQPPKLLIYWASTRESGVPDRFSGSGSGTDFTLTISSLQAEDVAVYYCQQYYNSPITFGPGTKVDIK
B8: hr2.094 (antibody, V domains shown)
VH: EVQLVESGGGLVQPGGSLRLSCAASGFTFSTFWMTWVRQAPGKGLEWVANIKSDGSEKYYVDSVKGRFTISRDNAKNSLYLQMNSLRAEDTAVYYCATWFGLHWGQGTLVTVSS
VL: DIVMTQSPDSLAVSLGERASINCKSSQTVLYSSNNKNYLAWYQQKPGQPPKLLIHWASTRDSGVPDRFSGSGSGTDFTLTISSLQAEDVAVYYCQQYHRIPWTFGRGTKVEIK
B9: hr2.025 (antibody, V domains shown)
VH: EVQLVQSGAEVKKPGESLKISCKGSGYSFTNYWIAWVRLMPGKGLEWMGFIFPGDSDTRYSPSFQGQVTISADKSISTAYLQWSSLKASDTAIYYCARRRGNSGNHDPYGMDVWGHGTTVTVSS
VL: not shown
B10: hr2.012 (antibody, V domains shown)
VH: QVQLVQSGAEVKKPGASVKVSCKASGYTFTSHYIHWVRQAPGQGLEWMGIIKPSGGNTIYAQTFQGRVTMTRDTSTSTVYMELRSLTSDDTAVYYCARDQDHGLQRWGQGTLVTVSS
VL: QSVLTQPPSVSAPPGQKVTISCSGSSSNIGNNFVSWYQQLPGTAPKLLIYDNIERPSGIPDRFSGSRSGTSATLGITGLQTGDEADYYCGTWDTSLGAWVFGGGTKVTVL
B11: hr2.015 (antibody, V domains shown)
VH: QVQLVQSGAEVKKPGASVKVSCKASGYTFSSYYVNWVRQAPGQGLEWLGIINRSGSSTIYAQKFQGRVTMTRDTSTSTVYLELSSLRSEDTAVYYCARDQDHALHWGQGTLVTVSS
VL: QSVLTQPPSVSAAPGQKVTISCSGSSSNIGSNYVSWYQQLPGTAPKLLIYDNSERPSGIPDRFSGSRSGTSATLGITGLQTGDEADYYCGTWDTSLSAWVFGGGTKLTVL
B12: hr2.013 (antibody, V domains shown)
VH: QVQLVQSGAEVKKPGASVKISCKASGYTFTNNYMNWVRQAPGQGLEWMGIIKPSSGSTIYAHKFQGRVTMTRDTSTSTVYMEVRSLTSEDTAVYYCARDQDHGLQNWGQGTLVTVSS
VL: QSVLTQPPSVSAASGQKVTIYCSGSSSNIASNFVSWYQQFPGTAPKLLIYDNNQRPSGIPDRFSGSRSGTSATLGITGLQTGDEADYYCGTWDTSLGAWVFGGGTKLTVL
B13: hr2.021 (antibody, V domains shown)
VH: QVQLVQSGAEVKKPGASVKVSCKASEAIFSGSYLHWVRQAPGQGLEWMGIITPSGDKTFYAQRFQGRLTMTRDTSTNTLHMHLSGLNSEDTAMYYCARQADKGGWDYWGQGTLVTVSS
VL: EIVLTQSPGTLSLSPGERATLSCRASQSVTSNYVAWYQQKPGQAPRLLIYGASTRATGIPDRFSGGGSGTDFTLTITRLEPEDFAVYYCQQYGSSPPTFTFGPGTKVDIK
B14: hr2.024 (antibody, V domains shown)
VH: QVQLVQSGAEVKKPGASVKVSCKASEDIFTDSYLHWVRQAPGQGLEWMGIITPSGDKTFYAQQFQGRLTMTRDPSTNTLYMFLSGLRSDDTAMYFCARQAEKGGWDYWGHGTLVTVSS
VL: EIVLTQSPGTLSLSPGQRATLSCRSSQTITSNYLAWYQQRPGQAPRLLIYGASIRATGIPDRFSGSGSGTDFTLTISRLEPEDFAVYYCQQYGSSPPTFIFGPGTKVDIK
B15: hr2.090 (antibody, V domains shown)
VH: EVQLLESGGGLVQPGGSLRLSCAASGVTFSRYAMSWVRQAPGKGLEWVSTISGGGGGTYYADSVKGRFTISRDNSKNTLYLQMNSLRAEDTAVYYCATLLTVPGPYYFEYWGQGTLVTVSS
VL: EIVLTQSPGTLSLSPGERATLSCRASQSVSSSYLAWYQQKPGQAPRLLIYGASSRATGIPDRFSGSGSGTDFTLTISRLESEDFAVYYCQHSRFTFGPGTRVDIK
B16: hr2.086 (antibody, V domains shown)
VH: EVQLLESGGGLVQPGGYLRLSCAASGFTFSSYAMSWVRQAPGKGLEWVSVISGGGGSAYYADSVKGRFTISRDNSKNTLYLQMNSLRAEDTAVYYCAKIGMILVFDYWGQGTLVTVSS
VL: EIVLTQSPGTLSLSPGERATLSCRASQSVSNNYLAWYQQKPGQAPRLLISGASSRATGIPDRFSGSGSGTDFTLTISRLEPEDFAVYYCQQYGSSPPTFGQGTKVEIK

These binders were tested against SARS-CoV-2 fusion peptide (FP) coldspot peptide, 812-831 (SARS-CoV-2 (ancestral), biotin-Ahx at the N-terminus; C-terminal amidation).

Binder	binding result
B1	binds
B2	binds

These binders were tested against SARS-CoV-2 S-2P ectodomain trimer (ancestral) (SARS-CoV-2 (ancestral, MN908947), stabilised).

Binder	binding result
B3	binds
B4	binds
B5	binds
B6	binds
B7	binds
B8	binds
B9	binds
B10	binds
B11	binds
B12	binds
B13	binds
B14	binds
B15	binds
B16	binds
